Test results taken from patent publication US20230399394A1 (SUNSHINE GUOJIAN PHARMACEUTICAL SHANGHAI, published 2023).

T1: Pep1 (human, N-terminal biotin)
T1 construct: Synthetic 20-mer of human IL-33
T1 peptide: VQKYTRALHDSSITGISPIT

T2: Pep2 (human, N-terminal biotin)
T2 construct: Synthetic 20-mer of human IL-33
T2 peptide: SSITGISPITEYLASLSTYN

T3: Pep4 (human, N-terminal biotin)
T3 construct: Synthetic 20-mer of human IL-33
T3 peptide: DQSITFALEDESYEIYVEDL

T4: Pep6 (human, N-terminal biotin)
T4 construct: Synthetic 20-mer of human IL-33
T4 peptide: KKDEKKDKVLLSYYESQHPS

T5: Pep10 (human, N-terminal biotin)
T5 construct: Synthetic 20-mer of human IL-33
T5 peptide: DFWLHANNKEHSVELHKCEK

T6: Pep13 (human, N-terminal biotin)
T6 construct: Synthetic 20-mer of human IL-33
T6 peptide: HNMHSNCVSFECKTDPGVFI

T7: Pep14 (human, N-terminal biotin)
T7 construct: Synthetic 20-mer of human IL-33
T7 peptide: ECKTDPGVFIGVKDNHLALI

T8: Pep15 (human, N-terminal biotin)
T8 construct: Synthetic 20-mer of human IL-33
T8 peptide: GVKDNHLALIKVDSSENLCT

T9: Human IL-33-his (human, UniProt O95760 112-270, biotinylated with EZ-Link NHS-Biotin where used as IL-33-his-biotin)
T9 construct: Used plain (SPR, cell assays) and biotinylated (ELISA); also called IL-33-his-biotin
T9 sequence: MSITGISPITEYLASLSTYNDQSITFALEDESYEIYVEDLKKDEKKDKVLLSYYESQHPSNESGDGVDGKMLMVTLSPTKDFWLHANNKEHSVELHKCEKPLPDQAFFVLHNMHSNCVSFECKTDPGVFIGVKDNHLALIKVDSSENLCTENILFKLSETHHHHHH

T10: Cynomolgus IL-33-his (cynomolgus, UniProt A0A2K5W3I1 112-269, biotinylated in the ELISA of Example 6)
T10 construct: Bought protein; also called cynomolgus IL-33 protein; Cynomolgus monkeys IL-33
T10 sequence: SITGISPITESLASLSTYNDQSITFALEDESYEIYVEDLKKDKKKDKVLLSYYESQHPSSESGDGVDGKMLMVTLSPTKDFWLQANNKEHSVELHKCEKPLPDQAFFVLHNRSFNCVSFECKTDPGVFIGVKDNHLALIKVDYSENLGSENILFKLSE

T11: Mouse IL-33 protein (mouse, UniProt Q8BVZ5 109-266)
T11 construct: Bought protein
T11 sequence (looked up): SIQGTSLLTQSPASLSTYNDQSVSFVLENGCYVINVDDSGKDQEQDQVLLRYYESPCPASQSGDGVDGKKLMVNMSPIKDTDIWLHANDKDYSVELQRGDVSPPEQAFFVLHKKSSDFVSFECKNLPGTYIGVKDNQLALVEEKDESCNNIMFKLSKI

B1: 874F7 (antibody, V domains shown)
VH: QVQLKESGPGLVAPSHSLSITCNVSGFSLSKYGVHWIRQIPGRGLDWLGVLRAGGSTGYNSALMSRLSISKDSSKSQVFLKMNDLRTDDTAVYFCVRDHYYYSSYGGFVYWGQGTLVTVSA
VL: DIQMTQSPASQSASLGESVTITCLASQTIGAWLAWYRQQPGKSPQLLIYAATRLADGVPSRFSGSGSGTEFSFKINNLQAEDFVSYYCQQLDSSPYTFGGGTRLEM
notes: Murine hybridoma antibody purified on Protein G; also called murine antibody 874F7
B2: 874F7-Hu1 (antibody, human IgG4 S228P, kappa)
heavy: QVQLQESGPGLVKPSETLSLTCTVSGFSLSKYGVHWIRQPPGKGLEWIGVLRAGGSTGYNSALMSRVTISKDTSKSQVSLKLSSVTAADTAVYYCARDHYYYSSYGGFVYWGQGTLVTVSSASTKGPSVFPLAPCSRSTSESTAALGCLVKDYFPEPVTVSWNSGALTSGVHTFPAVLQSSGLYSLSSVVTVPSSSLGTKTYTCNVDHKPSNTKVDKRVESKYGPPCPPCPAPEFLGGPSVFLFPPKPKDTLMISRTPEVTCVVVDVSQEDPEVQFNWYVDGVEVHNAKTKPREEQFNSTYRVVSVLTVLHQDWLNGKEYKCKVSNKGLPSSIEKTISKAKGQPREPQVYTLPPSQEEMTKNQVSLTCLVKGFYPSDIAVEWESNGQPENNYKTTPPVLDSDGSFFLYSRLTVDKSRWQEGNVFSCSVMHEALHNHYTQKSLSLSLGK
light: DIQMTQSPSSVSASVGDRVTITCLASQTIGAWLAWYQQKPGKSPKLLIYAATRLADGVPSRFSGSGSGTDFTLTISSLQPEDFATYYCQQLDSSPYTFGQGTKVEIKRTVAAPSVFIFPPSDEQLKSGTASVVCLLNNFYPREAKVQWKVDNALQSGNSQESVTEQDSKDSTYSLSSTLTLSKADYEKHKVYACEVTHQGLSSPVTKSFNRGEC
notes: also called 874F7-Hul; humanized antibody 874F7-Hu1

How the values were obtained:
Pep1 = target: T1, Pep1; experiment: ELISA, biotinylated peptide on streptavidin plate, antibody 10 µg/mL, well 1
Description: (§1) To determine the binding activity of antibody to each polypeptide fragment, the ELISA plate was pre-coated by biotin-avidin (SA) which was diluted in coating solution (50 mM carbonate coating buffer, pH 9.6) to 2 μg/ml at 4° C. overnight. The plate was washed with PBST for 3 times, and then blocked with 2% BSA prepared in PBS at room temperature for 2 h with 200 μL/well. The plate was washed once with PBST, and 864F3 and 874F7 with final concentrations of 10 μg/mL were added at 100 μL/well, respectively, and the plate was incubated at room temperature for 1 h. The plate was washed with PBST for 3 times, and the goat anti-mouse IgG labeled by HRP was added and placed at 37° C. for 30 min. After washing the plate with PBST for 3 times, the plate was patted on the absorbent paper to remove residual droplets as far as possible. 100 μl TMB developing solution was added to each well, and the plate was placed at room temperature (20±5° C.) for 5 minutes away from light; 50 μl 2M H₂SO₄ terminating solution was added to each well to terminate the substrate reaction. OD values were read at 450 nm on the microplate reader to analyze the binding ability of the antibody to each polypeptide fragment. The experimental results are shown in […]

Pep2 = target: T2, Pep2; experiment: as above
Description: as §1

Pep4 = target: T3, Pep4; experiment: as above
Description: as §1

Pep6 = target: T4, Pep6; experiment: as above
Description: as §1

Pep10 = target: T5, Pep10; experiment: as above
Description: as §1

Pep13 = target: T6, Pep13; experiment: as above
Description: as §1

Pep14 = target: T7, Pep14; experiment: as above
Description: as §1

Pep15 = target: T8, Pep15; experiment: as above
Description: as §1

Human IL-33-his = target: T9, Human IL-33-his; experiment: SPR Biacore 8K as Example 14, antibody captured, antigen as analyte
Description: (§2) A chip with covalently coupled Protein A/G (purchased from GE Healthcare, catalog number BR-1005-30) was used to capture each antibody to be tested, and the relevant operating parameters were as follows: The antibody concentration was […], the contact time was 75 s, the flow rate was […], and the regeneration contact time was 30 s. The IL-33-his antigen was diluted with HBS-EP pH7.4 buffer solution (purchased from GE Healthcare, catalog number BR-1006-69). The maximum concentration was 50 nM, and diluted to 0.39 nM by two-fold dilution. Duplicate wells and 0 concentration point well were set, and 6M guanidine hydrochloride solution was used as the regeneration buffer. The sample was injected on Biacore 8K according to the following parameters, the binding time was 180 s, the dissociation time was 900 s, the flow rate was 30 μL/min, and the regeneration contact time was 30 s. After running, Biacore 8K Evaluation Software was used to analyze the data according to the “1:1 binding kinetics model”, and the binding kinetics parameters of each antibody to IL-33 were obtained.
(§3) The experimental methods were referred to Example 14, in which the antigens cynomolgus IL-33 protein (purchased from Sino catalog number 90912-CNAE) and mouse IL-33 protein (purchased from R&D, 3626-ML-010/CF) were used, and human IL-33 protein was used as the control. Both 864F3-Hu4 and 874F7-Hu1 cross-react with cynomolgus IL-33 protein, and are consistent with the characteristics of each antibody binding to human IL-33 protein.

Cynomolgus IL-33-his = target: T10, Cynomolgus IL-33-his; experiment: as above
Description: as §2, §3

Mouse IL-33 protein = target: T11, Mouse IL-33 protein; experiment: as above
Description: as §2, §3

Binder	OD450 (Pep1) [OD450]	OD450 (Pep2) [OD450]	OD450 (Pep4) [OD450]	OD450 (Pep6) [OD450]	OD450 (Pep10) [OD450]	OD450 (Pep13) [OD450]	OD450 (Pep14) [OD450]	OD450 (Pep15) [OD450]	Kd (Human IL-33-his) [nM]	koff (Human IL-33-his) [s⁻¹]	kon (Human IL-33-his) [M⁻¹ s⁻¹]	Kd (Cynomolgus IL-33-his) [nM]	koff (Cynomolgus IL-33-his) [s⁻¹]	kon (Cynomolgus IL-33-his) [M⁻¹ s⁻¹]	Kd (Mouse IL-33 protein) [nM]	koff (Mouse IL-33 protein) [s⁻¹]	kon (Mouse IL-33 protein) [M⁻¹ s⁻¹]
B1	0.074	0.056	0.05	1.04	0.053	0.054	0.059	0.055									
B2									1.13	0.000204	180000	1.27	0.000349	273000	33.2	0.00212	64000
